Measured values as given in US20260027179A1 (UNIVERSITY OF BRITISH COLUMBIA, published 2026).

Target: T1, Purified recombinant human α-synuclein (N-terminal histidine tagged, Sigma, S7820-500UG) (human, UniProt P37840 1-140)
T1 construct: also called immobilized α-synuclein; not shown: N-terminal histidine tag
Experiment: Biacore 3000 SPR, α-synuclein immobilized on CM5 chip, peptide 0.20-12.50 µM injected

B1: Tat-βsyn-degron peptide (peptide)
peptide: YGRKKRRQRRRRTKSGVYLVGRRRG
notes: Chemically synthesized by GL Biochem; also called α-synuclein targeting peptide
Q: Does B1 bind?
A: binds
